± gives the uncertainty stated by the source.
Experiment: amyloid nucleation score (Sup35N fusion, yeast selection) (log enrichment); library NNK2; higher = more nucleation; inactive = no reads after selection
How it was run: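 For the nucleation score, DiMSum gave the log enrichment of output over input reads, centred on the mode score of non-aggregating sequences. Psi-negative yeast expressing Sup35N fused to peptides of 20 random codons were induced with 100 μM copper sulfate for 24 hours and grown 7 days at 30°C on medium lacking adenine and uracil. Input and output plasmid inserts were Illumina-sequenced, and sequences with under 100 input reads were excluded.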

Row | Substance | amyloid nucleation score
1 | DKSNGVTMVESITSGG | -0.303 ± 0.56
2 | DLGDKFL | 1.67 ± 0.23
3 | DLGHLTLISKFKFNESSAEH | -0.221 ± 1.1
4 | DLGMECTQVGRLDVVWELLI | 0.632 ± 0.31
5 | DLHWA | 0.595 ± 0.28
6 | DLLVCC | 1.28 ± 0.26
7 | DLSISSLGFQNIVLSHDNGY | -1.13 ± 1.1
8 | DMCDYQSVGF | inactive
9 | DMRFYMVLA | 4.94 ± 0.051
10 | DMSFQDIIMP | -0.931 ± 0.54
11 | DMYWCIYDRFMSLSWKT | -0.597 ± 0.53
12 | DNKSCFTNVWNYNVTEHWGH | -1.4 ± 0.54
13 | DNNTIWD | 0.94 ± 0.23
14 | DNVKVWSGFTRY | -0.148 ± 0.49
15 | DPPSSFEFMCLRLWV | 3.35 ± 0.085
16 | DQESRNSVFSGKGGRRDVSS | -0.134 ± 0.37
17 | DQSTSFFIFYNQTNWSMLFP | 6.12 ± 0.056
18 | DRAGLATLNSLELGDDGFLG | -1 ± 0.78
19 | DRLGTYSS | 0.409 ± 0.54
20 | DRNVTESMGYVWTASWGAY | 0.366 ± 0.41
21 | DRQCK | 0.445 ± 0.32
22 | DRSFVETREVACVVMYTSVF | -0.395 ± 0.61
23 | DRVFLFFKKRPGPWMMARLY | inactive
24 | DRVNGYIIGRLTAYTSVSKD | -0.317 ± 1.1
25 | DRVQG | 1.2 ± 0.22

Row | Substance | amyloid nucleation score
26 | DRWGFDFCQLLV | 1.95 ± 0.12
27 | DRWLVFPSNRPVFVMDRFNG | -0.414 ± 0.64
28 | DRYVSV | 0.455 ± 0.43
29 | DSACFYENSM | -0.48 ± 0.79
30 | DSFASTQYCAVSSSVQLAWQ | 1.45 ± 0.27
31 | DSGFGSW | -0.807 ± 0.74
32 | DSGLMSFVCNVDPKCVCFVN | 7.968 ± 0.075
33 | DSGLSHSNQWVDFSEYPTRL | inactive
34 | DSGNDLCDNYPVCWVKFCYC | 5.2 ± 0.063
35 | DSIFFYTGMQTDYHAHMSPC | inactive
36 | DSKWIM | -0.326 ± 0.46
37 | DSRMRWL | 0.149 ± 0.27
38 | DSTVRPMRGGECNAGVAGKE | 0.794 ± 0.24
39 | DSWSAVYTNISELAIGGCHG | -0.055 ± 1.1
40 | DTFINWIWRGYGKWMCSGRR | -0.135 ± 0.39
41 | DTLCYNRMWFLPGLKMDLGG | 7.62 ± 0.054
42 | DTWTYVAWFLYIIICSRQTE | -0.623 ± 0.35
43 | DVAYSYRHECIADKLLRVEH | 0.019 ± 0.55
44 | DVHNMGSPGVLAMLVTSDGK | 0.876 ± 0.74
45 | DVHTVCASSKHHLRVVKAVT | 0.494 ± 0.8
46 | DVKDDKLFNCLDVVMWVGNL | -0.058 ± 0.15
47 | DVKSYTITYSLSFHVMSVII | 2.72 ± 0.21
48 | DVNISASNEVALIASDRLLC | -0.149 ± 0.55
49 | DVQWTGPRPFPFV | 0.679 ± 0.4
50 | DVRVISNDNAWDDLRLYFDK | 0.36 ± 0.3

Row | Substance | amyloid nucleation score
51 | DVVCRMRATYCWALRVMGQR | 1.58 ± 0.29
52 | DVYSSVRVNYT | -0.386 ± 0.56
53 | DVYTQASLGMS | inactive
54 | DWFGLCFMKRFKFGEYKACM | -1.04 ± 0.48
55 | DWTDCYWMLRDTGGFSIS | -1.35 ± 0.78
56 | DYCSYTAL | -0.081 ± 1.1
57 | DYIFGYSTILFVMLCIHNFY | -1.35 ± 0.78
58 | DYLKLLAYNVLFR | inactive
59 | DYMFIDLASSNTNLRSWSHS | -0.408 ± 0.37
60 | DYSRLSLGICEVDDCTLRMV | -0.761 ± 0.39
61 | DYWFRGAESCTCGLE | 0.012 ± 0.63
62 | DYYNRVISASVYSLGGCC | 2.82 ± 0.075
63 | DYYYIPSSIVSTIFKEFSPL | -1.97 ± 0.78
64 | EALSKLFFYSWERSFHNGEG | 2.11 ± 0.11
65 | EARSGVNGRARSMFLIGRYS | -0.262 ± 0.63
66 | ECCQILCGSYWYIKYLSYDC | 1.8 ± 0.13
67 | EDELSPF | 0.453 ± 0.18
68 | EDITI | -1.67 ± 0.41
69 | EEKEVDVEVGRETHMSARDN | 0.563 ± 0.15
70 | EELAPSCAEDEILILSMLIN | -0.592 ± 0.76
71 | EELSIQRALLVCPKKEGFLE | 3.69 ± 0.082
72 | EEVQAFI | -0.22 ± 0.48
73 | EEWNRRANMGFLNYFETHGG | -1.14 ± 1
74 | EFILHVTQIAAIMDLRLVHM | 4.01 ± 0.11
75 | EFLLYRTSVP | -0.205 ± 0.76

Row | Substance | amyloid nucleation score
76 | EFNYHVQRSLFSR | 0.285 ± 0.65
77 | EFSIHAGLM | 0.222 ± 0.46
78 | EFYFG | 0.599 ± 0.8
79 | EGIVAMAERYYSSNIRAVTW | 0.296 ± 0.32
80 | EGRVFTGEGRYECCSCFGLL | -0.752 ± 0.64
81 | EHRSVRDLKRMQCEIYSRGV | 0.191 ± 0.8
82 | EHVGVTTVPIPLGMGLTWWC | 0.309 ± 0.16
83 | EIARLTNLDWTNISTFL | -0.698 ± 1.1
84 | EIHGMCTLYIFNSRPYIYPG | 6.594 ± 0.035
85 | EILTNQYFCRLWVMGTFYID | -1.19 ± 1
86 | EITEDSMVLVRWSGARNFHM | 2.56 ± 0.15
87 | EKVNLSTSCRVA | 0.664 ± 0.34
88 | ELAHQNENFRGRRFVAQ | -0.038 ± 1.1
89 | ELDGYLVLFFTGLNP | -0.418 ± 0.63
90 | ELGFGMMIAPSKGEKGDGML | 3.37 ± 0.12
91 | ELGVTNLDVDRHIDY | -0.038 ± 1.1
92 | ELGYCYSFGHSQFFKQSKHG | 3.03 ± 0.071
93 | ELLSRETIKDHWMTIIKYFL | -0.143 ± 0.74
94 | ELVRDGYTPFLFLILETVVM | -0.202 ± 0.49
95 | EMCGATRG | 3.28 ± 0.085
96 | EMIIL | -0.259 ± 0.32
97 | EMSFSLTYSRSRHFRSGGTA | 6.32 ± 0.064
98 | EMVRTTMSWPYMFS | -0.47 ± 1.1
99 | ENERNML | -0.11 ± 0.29
100 | ENSANNLGMFERSSRYRLSG | 0.356 ± 0.34

Row | Substance | amyloid nucleation score
101 | ENVFDCNRFY | inactive
102 | EPKFCGMDNHEL | 3.78 ± 0.14
103 | EQKGSVTYCGYKMSDV | 4.97 ± 0.062
104 | ERFHIVLHMVIDDRVSFGCV | 2.96 ± 0.12
105 | ERSNFWPRVQTPCESVA | 0.016 ± 1.1
106 | ERVDVI | -0.364 ± 0.32
107 | ESASTVTVCLRRVKVSHR | 5.204 ± 0.045
108 | ESDVSRDRMMALRNMYFCHR | 0.192 ± 0.74
109 | ESGVWCKAPFYMSVTLSIHS | -0.487 ± 0.56
110 | ESIVDWSYCFLTTFMSPRWA | 0.193 ± 0.65
111 | ESMLSEFFWDHS | 3.07 ± 0.072
112 | ESNKRTTCLFH | 0.331 ± 0.32
113 | ESRHSSLFHHPE | 0.119 ± 0.65
114 | ESTLDC | 0.343 ± 0.41
115 | ESVRASPV | 0.093 ± 0.28
116 | ETHFVTKDLASSLGKLAHPY | 8.848 ± 0.069
117 | EVTSTY | 0.501 ± 0.46
118 | EWILTELYHWFNFFYCRDGV | -1.2 ± 1.1
119 | EWLTLTDIFT | -0.619 ± 1
120 | EWRGMLLVSTRLVKDIVR | -0.553 ± 0.35
121 | EWTLWSSGLRAES | 0.217 ± 0.3
122 | EYFFYLLSSIMHIE | 2.45 ± 0.1
123 | FAFICTR | inactive
124 | FAFYRSFCWRVTWFSWVGGS | inactive
125 | FAHERHTIYRQVSIMMWRSM | 0.426 ± 0.25

Row | Substance | amyloid nucleation score
126 | FALHGEFFYHKKRSQGFRAH | -1.36 ± 0.61
127 | FALNLFCEDKCLYCSLVSS | 2.92 ± 0.066
128 | FARSFPRFRTESFDCKECRG | inactive
129 | FATQGSHKAVLGRSVHHLCR | -0.447 ± 0.61
130 | FAVKGCNFGTGVFMRVE | 0.021 ± 0.34
131 | FAYSLHRLLWIRCMYSNGR | 1.45 ± 0.17
132 | FCFISSYVPKLYSLKSQVVI | -0.988 ± 0.39
133 | FCFMIEGIFMCRLLLSRASF | inactive
134 | FCLLPIDQPVTGIFLVR | -0.158 ± 0.63
135 | FCNNWDFF | 2.41 ± 0.14
136 | FCSDGK | 0.186 ± 0.3
137 | FCSVCDRL | 0.168 ± 0.23
138 | FCWNYMFVFRIGCFGFDFIG | inactive
139 | FCWRYNSKIRLKHGQDSGPR | -0.343 ± 0.33
140 | FDCRNIREMHTRVYNSCTHP | -0.266 ± 1
141 | FDGHLINTFPRADASIAEDN | -0.454 ± 0.41
142 | FDKASLKFCVMLVVRSV | 0.236 ± 1.1
143 | FDLAMGVSLVKRLRLVLCLS | -1.12 ± 0.64
144 | FDLNYPSVSIIGKVLCSGPV | inactive
145 | FDMEIFTYGGTSNNFGHCDD | inactive
146 | FDMVSVVVYMRAVTTKCGPS | 1.73 ± 0.24
147 | FDSYTIMVI | 0.682 ± 0.21
148 | FDVKGRISLNRYSINFNARL | 5.11 ± 0.073
149 | FEDFLCFSGMRFVFELCADT | -0.917 ± 0.78
150 | FEGWVWFIPEASEHSYEHVN | -0.002 ± 1

Row | Substance | amyloid nucleation score
151 | FEKEWYSGLCFARAVARGMR | 2.97 ± 0.17
152 | FEQRGVTSRLCSPLSYEERM | -0.82 ± 0.3
153 | FERLNYQLREFYKVIKFSCV | inactive
154 | FEVFLM | -0.499 ± 0.41
155 | FEVLIFVDCWFVVMGRETLN | 2.68 ± 0.15
156 | FFFLTHGWEPTVMKEIKSAM | inactive
157 | FFGALNWGLKQE | 0.646 ± 0.43
158 | FFGGNCKVK | -0.146 ± 0.32
159 | FFGLVNWVGLGVHRSMTFAK | -0.609 ± 0.41
160 | FFGTMV | -0.19 ± 0.37
161 | FFGYAGCNRPVNLSYGGRFN | -0.952 ± 0.32
162 | FFHYVNAQVRGWLCTVYIIR | -0.574 ± 0.55
163 | FFIESSMLWYWDLKRYPMTL | -0.225 ± 0.54
164 | FFKRSSFKMGSRITETRYRR | -0.728 ± 0.56
165 | FFLIRSMGSSSAYRLRVCWR | -0.37 ± 0.76
166 | FFMIEMPVKSTFVGWSRSEG | -0.074 ± 0.25
167 | FFPPFVNLGVGTYQV | -1.37 ± 0.54
168 | FFRNIIYRCMREIKFIEPSE | -0.046 ± 0.63
169 | FFSSTMNCVSLKRVKL | -0.432 ± 1.1
170 | FFTSSHNFCYLMGYNMIWFK | inactive
171 | FFYFTMWNKHFEFVYNSSPC | -0.613 ± 0.64
172 | FFYSGRGYTDKWHMGSLPRC | -0.964 ± 0.76
173 | FFYYMRSIT | -1.9 ± 0.78
174 | FGGIASMMFVEMRRGSINEM | 3.51 ± 0.045

— the supplement of paper PMC12042874
